Tested on: Escherichia coli TOP10
Experiment: shrunken log2 fold change of peptide-encoding DNA abundance (4.5 h post-induction vs induction); higher = less antimicrobial activity (less host growth inhibition)
Conditions: time post-induction: 4.5 h; library: site-saturation at positions 5, 18, 19, 20
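Note: peptides expressed intracellularly from a pBAD plasmid library in pooled LB shake-flask culture, induced with 0.3% L-arabinose, DNA abundance read by NGS, three biological replicates, DESeq2 with apeglm shrinkage.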

| Sequence | shrunken log2 fold change |
| --- | --- |
| RRIRIRPPRLPRPRPRPEYDPRP | 0.0262 |
| RRIRIRPPRLPRPRPRPFAGPRP | 0.0391 |
| RRIRIRPPRLPRPRPRPFAQPRP | -0.108 |
| RRIRIRPPRLPRPRPRPFCAPRP | -0.088 |
| RRIRIRPPRLPRPRPRPFFIPRP | -0.641 |
| RRIRIRPPRLPRPRPRPFFSPRP | -0.799 |
| RRIRIRPPRLPRPRPRPFGAPRP | -0.143 |
| RRIRIRPPRLPRPRPRPFHAPRP | -0.388 |
| RRIRIRPPRLPRPRPRPFHPPRP | -0.111 |
| RRIRIRPPRLPRPRPRPFIVPRP | -0.105 |
| RRIRIRPPRLPRPRPRPFKIPRP | -0.144 |
| RRIRIRPPRLPRPRPRPFKMPRP | -0.568 |
| RRIRIRPPRLPRPRPRPFMDPRP | -1.07 |
| RRIRIRPPRLPRPRPRPFPCPRP | -0.0282 |
| RRIRIRPPRLPRPRPRPFSDPRP | -0.227 |
| RRIRIRPPRLPRPRPRPFTQPRP | -0.71 |
| RRIRIRPPRLPRPRPRPFTYPRP | -0.00992 |
| RRIRIRPPRLPRPRPRPFWFPRP | -0.684 |
| RRIRIRPPRLPRPRPRPFWQPRP | -0.31 |
| RRIRIRPPRLPRPRPRPFYYPRP | -0.667 |
| RRIRIRPPRLPRPRPRPGAPPRP | 0.416 |
| RRIRIRPPRLPRPRPRPGCRPRP | 0.0314 |
| RRIRIRPPRLPRPRPRPGCVPRP | -0.00757 |
| RRIRIRPPRLPRPRPRPGDTPRP | -0.372 |
| RRIRIRPPRLPRPRPRPGDYPRP | -0.0189 |

| Sequence | shrunken log2 fold change |
| --- | --- |
| RRIRIRPPRLPRPRPRPGECPRP | -0.143 |
| RRIRIRPPRLPRPRPRPGEQPRP | -0.0156 |
| RRIRIRPPRLPRPRPRPGFDPRP | 0.027 |
| RRIRIRPPRLPRPRPRPGFEPRP | 3.71 |
| RRIRIRPPRLPRPRPRPGFTPRP | -0.329 |
| RRIRIRPPRLPRPRPRPGFVPRP | 0.108 |
| RRIRIRPPRLPRPRPRPGGSPRP | -0.0491 |
| RRIRIRPPRLPRPRPRPGKSPRP | -0.0715 |
| RRIRIRPPRLPRPRPRPGLCPRP | 0.108 |
| RRIRIRPPRLPRPRPRPGLQPRP | 0.0696 |
| RRIRIRPPRLPRPRPRPGMSPRP | -0.15 |
| RRIRIRPPRLPRPRPRPGMWPRP | 0.0422 |
| RRIRIRPPRLPRPRPRPGMYPRP | 0.123 |
| RRIRIRPPRLPRPRPRPGNVPRP | -0.0399 |
| RRIRIRPPRLPRPRPRPGPNPRP | -0.113 |
| RRIRIRPPRLPRPRPRPGQGPRP | -0.257 |
| RRIRIRPPRLPRPRPRPGRQPRP | 0.172 |
| RRIRIRPPRLPRPRPRPGSRPRP | -0.0379 |
| RRIRIRPPRLPRPRPRPGSSPRP | -0.486 |
| RRIRIRPPRLPRPRPRPGVAPRP | 0.276 |
| RRIRIRPPRLPRPRPRPGVHPRP | 0.241 |
| RRIRIRPPRLPRPRPRPGWGPRP | 0.308 |
| RRIRIRPPRLPRPRPRPGYAPRP | -0.192 |
| RRIRIRPPRLPRPRPRPGYEPRP | -0.237 |
| RRIRIRPPRLPRPRPRPGYMPRP | -0.442 |

| Sequence | shrunken log2 fold change |
| --- | --- |
| RRIRIRPPRLPRPRPRPGYRPRP | -0.217 |
| RRIRIRPPRLPRPRPRPHAKPRP | -0.348 |
| RRIRIRPPRLPRPRPRPHALPRP | -0.127 |
| RRIRIRPPRLPRPRPRPHCSPRP | -1.21 |
| RRIRIRPPRLPRPRPRPHCWPRP | -0.27 |
| RRIRIRPPRLPRPRPRPHDIPRP | -0.146 |
| RRIRIRPPRLPRPRPRPHDTPRP | -0.548 |
| RRIRIRPPRLPRPRPRPHDYPRP | -0.262 |
| RRIRIRPPRLPRPRPRPHEEPRP | -0.031 |
| RRIRIRPPRLPRPRPRPHEVPRP | -0.0624 |
| RRIRIRPPRLPRPRPRPHHDPRP | -0.515 |
| RRIRIRPPRLPRPRPRPHHWPRP | -0.18 |
| RRIRIRPPRLPRPRPRPHIDPRP | -0.0031 |
| RRIRIRPPRLPRPRPRPHIWPRP | -0.582 |
| RRIRIRPPRLPRPRPRPHKEPRP | 0.0692 |
| RRIRIRPPRLPRPRPRPHMAPRP | -0.367 |
| RRIRIRPPRLPRPRPRPHMHPRP | -1.05 |
| RRIRIRPPRLPRPRPRPHMKPRP | -0.809 |
| RRIRIRPPRLPRPRPRPHMYPRP | -0.485 |
| RRIRIRPPRLPRPRPRPHNAPRP | -0.549 |
| RRIRIRPPRLPRPRPRPHPGPRP | -0.571 |
| RRIRIRPPRLPRPRPRPHRIPRP | 0.0122 |
| RRIRIRPPRLPRPRPRPHVLPRP | -0.198 |
| RRIRIRPPRLPRPRPRPIADPRP | -0.0882 |
| RRIRIRPPRLPRPRPRPIDCPRP | -0.145 |

— the supplement of paper PMC9112550, “Optimization of the antimicrobial peptide Bac7 by deep mutational scanning” (BMC Biology, 2022)
